The values below come from the FLAb antibody collection.

The data set is described as follows: patients with anti-drug antibodies; higher = more immunogenic.

B1: unnamed (protein)
chain 1: QGQLVQSGAEVKKPGASVKVSCKASGYTFTDYEMHWVRQAPIHGLEWIGVIESETGGTAYNQKFKGRVTITADKSTSTAYMELSSLRSEDTAVYYCAREGITTVATTYYWYFDVWGQGTTVTVSS
chain 2: DVVMTQSPLSLPVTLGQPASISCRSSQSIVHSNGNTYLEWYLQKPGQSPQLLIYKVSNRFSGVPDRFSGSGSGTDFTLKISRVEAEDVGVYYCFQGSHVPLTFGQGTKLEIK
Turning to B1, the “patients with anti-drug antibodies” value was 1%.

B2: unnamed (protein)
chain 1: EVQLVQSGAEVKKPGESLKISCKGSGYSFTTYWLGWVRQMPGKGLDWIGIMSPVDSDIRYSPSFQGQVTMSVDKSITTAYLQWNSLKASDTAMYYCARRRPGQGYFDFWGQGTLVTVSS
chain 2: DIQMTQSPSSLSASVGDRVTITCRASQGISSWLAWYQQKPEKAPKSLIYAASSLQSGVPSRFSGSGSGTDFTLTISSLQPEDFATYYCQQYNIYPYTFGQGTKLEIK
For the protein B2, the “patients with anti-drug antibodies” value stood at 4%.

B3: unnamed (protein)
chain 1: QVKLQESGAELARPGASVKLSCKASGYTFTNYWMQWVKQRPGQGLDWIGAIYPGDGNTRYTHKFKGKATLTADKSSSTAYMQLSSLASEDSGVYYCARGEGNYAWFAYWGQGTTVTVSS
chain 2: DIELTQSPASLSASVGETVTITCQASENIYSYLAWHQQKQGKSPQLLVYNAKTLAGGVSSRFSGSGSGTHFSLKIKSLQPEDFGIYYCQHHYGILPTFGGGTKLEIK
In the case of B3, the “patients with anti-drug antibodies” value turned out to be 68.1%.

B4: unnamed (protein)
chain 1: EVQMVQSGAEVKKPGEPLKISCKGSGYKFGTHWIGWVRQRPGKGLEWMGIIHPADSETKYSPSFQGQVSFSADKSSNTAYLHWSTLRASDTAMYYCARRSGSSSWYALDFWGQGTMVTVSS
chain 2: QSVLTQSPSASGTPGQRVTISCSGGSSNIGSNTVNWYQQFPGAAPKLLIYTNNQRPSGVPDRFSGSKSGTSASLAISGLQSEDEADYYCATWDDSLNGLYVFGTGTKVTVL
For the protein B4, the “patients with anti-drug antibodies” value was determined as 2.1%.

B5: unnamed (protein)
chain 1: QVQLQESGPGLVRPSQTLSLTCTVSGYSITSDHAWSWVRQPPGRGLEWIGYISYSGITTYNPSLKSRVTMLRDTSKNQFSLRLSSVTAADTAVYYCARSLARTTAMDYWGQGSLVTVSS
chain 2: DIQMTQSPSSLSASVGDRVTITCRASQDISSYLNWYQQKPGKAPKLLIYYTSRLHSGVPSRFSGSGSGTDFTFTISSLQPEDIATYYCQQGNTLPYTFGQGTKVEIK
Consider B5, for which the “patients with anti-drug antibodies” value is 2%.

B6: unnamed (protein)
chain 1: QVQLVQSGAEVKKPGASVKVSCKASGYTFTNYGLSWVRQAPGQGLEWMGWISANNGDTNYGQEFQGRVTMTTDTSTSTAYMELRSLRSDDTAVYYCARDSSSSWARWFFDLWGRGTLVTVSS
chain 2: SYVLTQPPSVSVAPGKTARITCGGNIIGSKLVHWYQQKPGQAPVLVIYDDGDRPSGIPERFSGSNSGNTATLTISRVEAGDEADYYCQVWDTGSDPVVFGGGTKLTVL
As for B6, the “patients with anti-drug antibodies” value amounted to 0.5%.

B7: unnamed (protein)
chain 1: QVQLVESGGGLVKPGGSLRLSCAASGFTFSDYYMNWIRQAPGKGLEWVSYISSSGSIIYYADSVKGRFTISRDNAKNSLYLQMNSLRAEDTAVYYCAREGRIAARGMDVWGQGTTVTVSS
chain 2: DIQMTQSPSSLSASVGDRVSITCRPSQSFSRYINWYQQKPGKAPKLLIHAASSLVGGVPSRFSGSGSGTDFTLTISSLQPEDFATYYCQQTYSNPPITFGQGTRLEMK
As for B7, the “patients with anti-drug antibodies” value stood at 2.9%.

B8: unnamed (protein)
chain 1: QVQLQQSGAEVKKPGSSVRVSCKASGGTFNNNAINWVRQAPGQGLEWMGGIIPMFGTAKYSQNFQGRVAITADESTGTASMELSSLRSEDTAVYYCARSRDLLLFPHHALSPWGRGTMVTVSS
chain 2: SSELTQDPAVSVALGQTVRVTCQGDSLRSYYASWYQQKPGQAPVLVIYGKNNRPSGIPDRFSGSSSGNTASLTITGAQAEDEADYYCSSRDSSGNHWVFGGGTELTVL
With B8, the “patients with anti-drug antibodies” value came out at 2.4%.

B9: unnamed (protein)
chain 1: QAYLQQSGAELVRPGASVKMSCKASGYTFTSYNMHWVKQTPRQGLEWIGAIYPGNGDTSYNQKFKGKATLTVDKSSSTAYMQLSSLTSEDSAVYFCARVVYYSNSYWYFDVWGTGTTVTVSG
chain 2: QIVLSQSPAILSASPGEKVTMTCRASSSVSYMHWYQQKPGSSPKPWIYAPSNLASGVPARFSGSGSGTSYSLTISRVEAEDAATYYCQQWSFNPPTFGAGTKLELK
In the case of B9, the “patients with anti-drug antibodies” value was determined as 45.5%.

B10: unnamed (protein)
chain 1: QAYLQQSGAELVRPGASVKMSCKASGYTFTSYNMHWVKQTPRQGLEWIGGIYPGNGDTSYNQKFKGKATLTVGKSSSTAYMQLSSLTSEDSAVYFCARYDYNYAMDYWGQGTSVTVSS
chain 2: QIVLSQSPAILSASPGEKVTMTCRASSSVSYMHWYQQKPGSSPKPWIYATSNLASGVPARFSGSGSGTSYSFTISRVEAEDAATYYCQQWTFNPPTFGGGTRLEIK
As to B10, the “patients with anti-drug antibodies” value stood at 0%.
